# Assay results: patent US20230140797A1 (published 2023)
# T1: human FcγRIIb extracellular domain with C-terminal His tag (human, UniProt P31994 43-217)
# T1 sequence (looked up): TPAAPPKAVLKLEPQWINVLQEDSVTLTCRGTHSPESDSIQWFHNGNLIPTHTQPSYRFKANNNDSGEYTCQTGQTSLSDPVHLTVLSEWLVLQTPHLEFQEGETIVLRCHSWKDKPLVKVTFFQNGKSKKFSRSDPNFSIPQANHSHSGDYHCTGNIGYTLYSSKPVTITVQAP
# Legend:
# [1] = molecular target: T1, human FcγRIIb extracellular domain with …; test: SPR
# [2] = molecular target: T1, human FcγRIIb extracellular domain with …; test: SPR; remark: listed apart in the source
binder,measurement,setting,value
"BP504 (antibody, human IgG1, kappa) heavy: QVQLQESGPGLVKPSETLSLTCAVSGHSISHDHAWSWVRQPPGEGLEWIGFISYSGITNYNPSLQGRVTISRDNSKNTLYLQMNSLRAEDTAVYYCARSLARTTAMDYWGEGTLVTVSSASTKGPSVFPLAPSSKSTSGGTAALGCLVKDYFPEPVTVSWNSGALTSGVHTFPAVLQSSGLYSLSSVVTVPSSSLGTQTYICNVNHKPSNTKVDKKVEPKSCDKTHTCPPCPAPDLLGDDSVFLFPPKPKDTLMISRTPEVTCVVIDVAEEDGPVKFNWYVDGVEVHNAKTKPREEQYNSTYRVVSVLTVLHQDWLNGKEYKCKVSNKALPAPIEKTISKAKGQPREPQVYTLPPSRDELTKNQVSLTCLVKGFYPSDIAVEWESNGQPENNYKTTPPVLDSDGSFFLYSKLTVDKSRWQQGNVFSCSVMHEALHNHYTQESLSLSP light: not shown",KD (IIaR)/KD (IIb),[1],18.5
same,KD (IIaH)/KD (IIb),[2],658
"BP508 (antibody, human IgG1, kappa) heavy: QVQLQESGPGLVKPSETLSLTCAVSGHSISHDHAWSWVRQPPGEGLEWIGFISYSGITNYNPSLQGRVTISRDNSKNTLYLQMNSLRAEDTAVYYCARSLARTTAMDYWGEGTLVTVSSASTKGPSVFPLAPSSKSTSGGTAALGCLVKDYFPEPVTVSWNSGALTSGVHTFPAVLQSSGLYSLSSVVTVPSSSLGTQTYICNVNHKPSNTKVDKKVEPKSCDKTHTCPPCPAPDLLGDDSVFLFPPKPKDTLMISRTPEVTCVVIDVAEEDGPVKFNWYVDGVEVHNAKTKPREEQDNSTYRVVSVLTVLHQDWLNGKEYKCKVSNKALPAPIEKTISKAKGQPREPQVYTLPPSRDELTKNQVSLTCLVKGFYPSDIAVEWESNGQPENNYKTTPPVLDSDGSFFLYSKLTVDKSRWQQGNVFSCSVMHEALHNHYTQESLSLSP light: not shown",KD (IIaR)/KD (IIb),[1],26
same,KD (IIaH)/KD (IIb),[2],962
"BP509 (antibody, human IgG1, kappa) heavy: QVQLQESGPGLVKPSETLSLTCAVSGHSISHDHAWSWVRQPPGEGLEWIGFISYSGITNYNPSLQGRVTISRDNSKNTLYLQMNSLRAEDTAVYYCARSLARTTAMDYWGEGTLVTVSSASTKGPSVFPLAPSSKSTSGGTAALGCLVKDYFPEPVTVSWNSGALTSGVHTFPAVLQSSGLYSLSSVVTVPSSSLGTQTYICNVNHKPSNTKVDKKVEPKSCDKTHTCPPCPAPDLLGDDSVFLFPPKPKDTLMISRTPEVTCVVIDVAEEDGDVKFNWYVDGVEVHNAKTKPREEQDNSTYRVVSVLTVLHQDWLNGKEYKCKVSNKALPAPIEKTISKAKGQPREPQVYTLPPSRDELTKNQVSLTCLVKGFYPSDIAVEWESNGQPENNYKTTPPVLDSDGSFFLYSKLTVDKSRWQQGNVFSCSVMHEALHNHYTQESLSLSP light: not shown",KD (IIaR)/KD (IIb),[1],29.2
same,KD (IIaH)/KD (IIb),[2],444
"BP560 (antibody, human IgG1, kappa) heavy: QVQLQESGPGLVKPSETLSLTCAVSGHSISHDHAWSWVRQPPGEGLEWIGFISYSGITNYNPSLQGRVTISRDNSKNTLYLQMNSLRAEDTAVYYCARSLARTTAMDYWGEGTLVTVSSASTKGPSVFPLAPSSKSTSGGTAALGCLVKDYFPEPVTVSWNSGALTSGVHTFPAVLQSSGLYSLSSVVTVPSSSLGTQTYICNVNHKPSNTKVDKKVEPKSCDKTHTCPPCPAPELLGGDSVFLFPPKPKDTLMISRTPEVTCVVVDVGEEDGEVKFNWYVDGVEVHNAKTKPREEQDNSTYRVVSVLTVLHQDWLNGKEYKCKVSNKALPRPIEKTISKAKGQPREPQVYTLPPSRDELTKNQVSLTCLVKGFYPSDIAVEWESNGQPENNYKTTPPVLDSDGSFFLYSKLTVDKSRWQQGNVFSCSVMHEALHNHYTQESLSLSP light: not shown",KD (IIaR)/KD (IIb),[1],22.8
same,KD (IIaH)/KD (IIb),[2],168
"BP562 (antibody, human IgG1, kappa) heavy: QVQLQESGPGLVKPSETLSLTCAVSGHSISHDHAWSWVRQPPGEGLEWIGFISYSGITNYNPSLQGRVTISRDNSKNTLYLQMNSLRAEDTAVYYCARSLARTTAMDYWGEGTLVTVSSASTKGPSVFPLAPSSKSTSGGTAALGCLVKDYFPEPVTVSWNSGALTSGVHTFPAVLQSSGLYSLSSVVTVPSSSLGTQTYICNVNHKPSNTKVDKKVEPKSCDKTHTCPPCPAPELLGDDSVFLFPPKPKDTLMISRTPEVTCVVVDVSDEDGDVKFNWYVDGVEVHNAKTKPREEQDNSTYRVVSVLTVLHQDWLNGKEYKCKVSNKALPRPIEKTISKAKGQPREPQVYTLPPSRDELTKNQVSLTCLVKGFYPSDIAVEWESNGQPENNYKTTPPVLDSDGSFFLYSKLTVDKSRWQQGNVFSCSVMHEALHNHYTQESLSLSP light: not shown",KD (IIaR)/KD (IIb),[1],20
same,KD (IIaH)/KD (IIb),[2],466
"BP563 (antibody, human IgG1, kappa) heavy: QVQLQESGPGLVKPSETLSLTCAVSGHSISHDHAWSWVRQPPGEGLEWIGFISYSGITNYNPSLQGRVTISRDNSKNTLYLQMNSLRAEDTAVYYCARSLARTTAMDYWGEGTLVTVSSASTKGPSVFPLAPSSKSTSGGTAALGCLVKDYFPEPVTVSWNSGALTSGVHTFPAVLQSSGLYSLSSVVTVPSSSLGTQTYICNVNHKPSNTKVDKKVEPKSCDKTHTCPPCPAPDLLGDDSVFLFPPKPKDTLMISRTPEVTCVVVDVSEEDGDVKFNWYVDGVEVHNAKTKPREEQDNSTYRVVSVLTVLHQDWLNGKEYKCKVSNKALPRPIEKTISKAKGQPREPQVYTLPPSRDELTKNQVSLTCLVKGFYPSDIAVEWESNGQPENNYKTTPPVLDSDGSFFLYSKLTVDKSRWQQGNVFSCSVMHEALHNHYTQESLSLSP light: not shown",KD (IIaR)/KD (IIb),[1],29.1
same,KD (IIaH)/KD (IIb),[2],525
"IL6R-BP500/IL6R-L (antibody, human IgG1, kappa) heavy: QVQLQESGPGLVKPSETLSLTCAVSGHSISHDHAWSWVRQPPGEGLEWIGFISYSGITNYNPSLQGRVTISRDNSKNTLYLQMNSLRAEDTAVYYCARSLARTTAMDYWGEGTLVTVSSASTKGPSVFPLAPSSKSTSGGTAALGCLVKDYFPEPVTVSWNSGALTSGVHTFPAVLQSSGLYSLSSVVTVPSSSLGTQTYICNVNHKPSNTKVDKKVEPKSCDKTHTCPPCPAPELLGDDSVFLFPPKPKDTLMISRTPEVTCVVIDVAEEDGEVKFNWYVDGVEVHNAKTKPREEQDNSTYRVVSVLTVLHQDWLNGKEYKCKVSNKALPAPIEKTISKAKGQPREPQVYTLPPSRDELTKNQVSLTCLVKGFYPSDIAVEWESNGQPENNYKTTPPVLDSDGSFFLYSKLTVDKSRWQQGNVFSCSVMHEALHNHYTQESLSLSP light: not shown",KD (IIaR)/KD (IIb),[1],28.9
same,KD (IIaH)/KD (IIb),[2],1030
"IL6R-BP502/IL6R-L (antibody, human IgG1, kappa) heavy: QVQLQESGPGLVKPSETLSLTCAVSGHSISHDHAWSWVRQPPGEGLEWIGFISYSGITNYNPSLQGRVTISRDNSKNTLYLQMNSLRAEDTAVYYCARSLARTTAMDYWGEGTLVTVSSASTKGPSVFPLAPSSKSTSGGTAALGCLVKDYFPEPVTVSWNSGALTSGVHTFPAVLQSSGLYSLSSVVTVPSSSLGTQTYICNVNHKPSNTKVDKKVEPKSCDKTHTCPPCPAPDLLGDDSVFLFPPKPKDTLMISRTPEVTCVVIDVAEEDGEVKFNWYVDGVEVHNAKTKPREEQDNSTYRVVSVLTVLHQDWLNGKEYKCKVSNKGLPRPIEKTISKAKGQPREPQVYTLPPSRDELTKNQVSLTCLVKGFYPSDIAVEWESNGQPENNYKTTPPVLDSDGSFFLYSKLTVDKSRWQQGNVFSCSVMHEALHNHYTQESLSLSP light: not shown",KD (IIaR)/KD (IIb),[1],28.5
same,KD (IIaH)/KD (IIb),[2],352
"IL6R-BP503/IL6R-L (antibody, human IgG1, kappa) heavy: QVQLQESGPGLVKPSETLSLTCAVSGHSISHDHAWSWVRQPPGEGLEWIGFISYSGITNYNPSLQGRVTISRDNSKNTLYLQMNSLRAEDTAVYYCARSLARTTAMDYWGEGTLVTVSSASTKGPSVFPLAPSSKSTSGGTAALGCLVKDYFPEPVTVSWNSGALTSGVHTFPAVLQSSGLYSLSSVVTVPSSSLGTQTYICNVNHKPSNTKVDKKVEPKSCDKTHTCPPCPAPDLLGDDSVFLFPPKPKDTLMISRTPEVTCVVIDVAEEDGEVKFNWYVDGVEVHNAKTKPREEQDNSTYRVVSVLTVLHQDWLNGKEYKCKVSNKGLPRPIEKTISKAKGQPREPQVYTLPPSRDELTKNQVSLTCLVKGFYPSDIAVEWESNGQPENNYKTTPMVLDSDGSFFLYSKLTVDKSRWQQGNVFSCSVMHEALHNHYTQESLSLSP light: not shown",KD (IIaR)/KD (IIb),[1],33.2
same,KD (IIaH)/KD (IIb),[2],503
"IL6R-BP511/IL6R-L (antibody, human IgG1, kappa) heavy: QVQLQESGPGLVKPSETLSLTCAVSGHSISHDHAWSWVRQPPGEGLEWIGFISYSGITNYNPSLQGRVTISRDNSKNTLYLQMNSLRAEDTAVYYCARSLARTTAMDYWGEGTLVTVSSASTKGPSVFPLAPSSKSTSGGTAALGCLVKDYFPEPVTVSWNSGALTSGVHTFPAVLQSSGLYSLSSVVTVPSSSLGTQTYICNVNHKPSNTKVDKKVEPKSCDKTHTCPPCPAPELLGDDSVFLFPPKPKDTLMISRTPEVTCVVIDVAEEDGPVKFNWYVDGVEVHNAKTKPREEQDNSTYRVVSVLTVLHQDWLNGKEYKCKVSNKALPRPIEKTISKAKGQPREPQVYTLPPSRDELTKNQVSLTCLVKGFYPSDIAVEWESNGQPENNYKTTPPVLDSDGSFFLYSKLTVDKSRWQQGNVFSCSVMHEALHNHYTQESLSLSP light: not shown",KD (IIaR)/KD (IIb),[1],50.6
same,KD (IIaH)/KD (IIb),[2],1240
"IL6R-BP533/IL6R-L (antibody, human IgG1, kappa) heavy: QVQLQESGPGLVKPSETLSLTCAVSGHSISHDHAWSWVRQPPGEGLEWIGFISYSGITNYNPSLQGRVTISRDNSKNTLYLQMNSLRAEDTAVYYCARSLARTTAMDYWGEGTLVTVSSASTKGPSVFPLAPSSKSTSGGTAALGCLVKDYFPEPVTVSWNSGALTSGVHTFPAVLQSSGLYSLSSVVTVPSSSLGTQTYICNVNHKPSNTKVDKKVEPKSCDKTHTCPPCPAPDLLGDDSVFLFPPKPKDTLMISRTPEVTCVVIDVGEEDGEVKFNWYVDGVEVHNAKTKPREEQDNSTYRVVSVLTVLHQDWLNGKEYKCKVSNKALPRPIEKTISKAKGQPREPQVYTLPPSRDELTKNQVSLTCLVKGFYPSDIAVEWESNGQPENNYKTTPLVLDSDGSFFLYSKLTVDKSRWQQGNVFSCSVMHEALHNHYTQESLSLSP light: not shown",KD (IIaR)/KD (IIb),[1],28.3
same,KD (IIaH)/KD (IIb),[2],684
